Results published in patent US20220389106A1 (University of Texas, published 2022).

T1: recombinant hu-EphA10 Fc chimera protein [the extracellular domain (Glu34-Ala565)] (human, UniProt Q5JZY3 34-565)
T1 construct: range 34-565; Purified from 293T cells; also called hu-EphA10 Fc protein; not shown: Fc part of the chimera
T1 sequence (looked up): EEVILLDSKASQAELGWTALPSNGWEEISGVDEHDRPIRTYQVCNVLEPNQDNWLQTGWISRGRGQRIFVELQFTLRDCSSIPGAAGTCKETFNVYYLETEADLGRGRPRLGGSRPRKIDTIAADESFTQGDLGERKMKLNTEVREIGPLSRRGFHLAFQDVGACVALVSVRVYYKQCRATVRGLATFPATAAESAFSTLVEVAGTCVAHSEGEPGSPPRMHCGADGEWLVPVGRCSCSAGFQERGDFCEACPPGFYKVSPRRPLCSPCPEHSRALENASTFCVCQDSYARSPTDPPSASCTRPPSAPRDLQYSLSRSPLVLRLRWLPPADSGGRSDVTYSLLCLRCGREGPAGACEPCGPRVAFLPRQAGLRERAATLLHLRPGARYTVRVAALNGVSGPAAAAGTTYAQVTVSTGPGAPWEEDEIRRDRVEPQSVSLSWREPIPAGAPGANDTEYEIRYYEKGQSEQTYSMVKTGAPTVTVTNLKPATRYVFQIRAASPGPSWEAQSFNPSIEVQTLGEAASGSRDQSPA

B1: anti-hu-EphA10 antibody Clone 4 (antibody, IgG1, V domains shown)
VH: EVKLEESGGGLVQPGGSMKLSCVASGFTFSYYWMNWVRQSPEKGLEWVAEIRLKSNNYATHYAESVKGRFTISRDDSKSSVYLQMNNLRAEDSGIYYCTFYYGSSAWFAYWGQGTLVTVSA
VL: DIQMTQSPASLSASVGETVTITCRASENIYSYLAWYQQKQGKSPQLLVYNVKTLTEGVPSRFSGSGSGTQFSLKIDSLQPEDFGSYYCQHHYVTPPTFGAGTKLELK
B2: anti-hu-EphA10 antibody Clone 8 (antibody, IgG1, V domains shown)
VH: QVQLQQSGPELVKPGPLVKISCKASGYTFTSYDITWVKQRPGQGLEWIGWIYPGDGSTKYNEKFKGKATLTADKSSSTAYMQLSSLTSENSAVYFCARGGRLPYFDYWGQGTTLTVSS
VL: NIVLTQSPASLAVSLGQRATISCRASESVDSYGNSFMHWYQQKPGQPPKLLIYLASNLESAVPARFSGSGSRTDFTLTIDPVEADDAATYYCQQNNEYPWTFGGGTKLEIK
B3: anti-hu-EphA10 antibody Clone 9 (antibody, IgG1, V domains shown)
VH: QVQLQQSGAELMKPGASVKISCKATGYTFSTYWIEWVKQRPGHGLEWIGEILPGSGRTNYKEKFKDKATFTANTSSTTAYMQLSSLTSEDSAVYYCAIDWYWGQGTTLTVSS
VL: QIVLTQSPAIMSASPGEKVTITCSASSSVSYMYWFQQKPGTSPKLWIYSTSNLASGVPARFSGSGSGTSYSLTISRMEAEDAATYYCQQRNSYPPTFGGGTKLEIK
notes: also called anti-EphA10 (clone 9); anti-EphA10 (clone 9)-pHrodo

Each binder was assayed against T1, recombinant hu-EphA10 Fc chimera … (assay: ELISA screening (FIG. 1C)).
B1: binds. B2: binds. B3: binds.
